Publication PMC3800186

Target: HIV-1 YU2 gp120 S375A mutant (HIV-1 YU2)
Assay: SPR

KR21 biotinylated peptide triazole
IC50: 1.28 µM
